Laboratory results reported in patent US20160115200A1, “New Use for JNK Inhibitor Molecules for Treatment of Various Diseases” (XIGEN INFLAMMATION LTD., priority 2013, published 2016).
pIC50: −log10 of the molar value.

Experiments:
Assay in all cases: kinase inhibition
[1] = molecular target: His-JNK1 (ref 14-327, Upstate) (UniProt P45983)
[2] = molecular target: His-JNK2 (ref 14-329, Upstate) (UniProt P45984)
[3] = molecular target: His-JNK3 (ref 14-501, Upstate) (UniProt P53779)
Chain of His-JNK3 (ref 14-501, Upstate) (P53779 other isoform, or with tags, fused parts or gaps): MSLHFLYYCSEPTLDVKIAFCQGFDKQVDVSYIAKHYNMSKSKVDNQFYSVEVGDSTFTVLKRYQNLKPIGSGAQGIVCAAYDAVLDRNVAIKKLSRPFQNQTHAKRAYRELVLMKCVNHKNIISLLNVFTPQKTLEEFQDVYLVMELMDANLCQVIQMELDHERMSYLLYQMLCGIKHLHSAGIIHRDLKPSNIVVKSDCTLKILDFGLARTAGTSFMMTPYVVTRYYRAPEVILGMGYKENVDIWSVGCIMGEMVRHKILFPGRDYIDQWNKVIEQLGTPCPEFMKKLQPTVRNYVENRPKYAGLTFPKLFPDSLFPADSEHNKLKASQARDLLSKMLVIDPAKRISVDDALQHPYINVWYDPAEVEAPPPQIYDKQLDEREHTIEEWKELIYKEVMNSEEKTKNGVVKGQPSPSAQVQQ

Chain of His-JNK1 (ref 14-327, Upstate) (P45983 other isoform, or with tags, fused parts or gaps): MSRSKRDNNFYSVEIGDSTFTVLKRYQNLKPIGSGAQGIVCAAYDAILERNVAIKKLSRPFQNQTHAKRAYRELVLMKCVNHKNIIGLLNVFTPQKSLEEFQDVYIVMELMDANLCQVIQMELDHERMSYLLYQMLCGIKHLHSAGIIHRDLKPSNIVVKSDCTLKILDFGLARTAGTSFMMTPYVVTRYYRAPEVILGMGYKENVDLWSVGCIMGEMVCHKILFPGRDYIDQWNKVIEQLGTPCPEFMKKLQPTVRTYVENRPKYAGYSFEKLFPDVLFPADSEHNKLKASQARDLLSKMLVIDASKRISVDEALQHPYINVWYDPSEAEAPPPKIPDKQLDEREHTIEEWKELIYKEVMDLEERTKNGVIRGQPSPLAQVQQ

In the case of D-TAT-IB1, the pIC50 [1] was 4.61, the pIC50 [2] was 6.10 and the pIC50 [3] was 5.89.
